{"source": "patent US20220259593A1", "about": "“CONTROL OF MAMMALIAN GENE DOSAGE USING CRISPR” (The Regents of the University of California, priority 2019, published 2022)", "molecules": {"B1": {"name": "cr074 (nucleic acid)", "guide": "GTTTATGCGCTAAGCTGGAAACAGCATAGCAAGTTTAAATAAGGCTAGTCCGTTATCAACTTGAAAAAGTGGCACCGAGTCGGTGCT", "modifications": "listed as DNA, chemistry not fully specified"}, "B2": {"name": "cr014 (nucleic acid)", "guide": "B1 guide with A5C, T6A, C8A", "modifications": "listed as DNA, chemistry not fully specified"}, "B3": {"name": "cr064 (nucleic acid)", "guide": "B1 guide with A5T, T6A, C8A", "modifications": "listed as DNA, chemistry not fully specified"}, "B4": {"name": "cr051 (nucleic acid)", "guide": "B1 guide with G1T, T6A, G7C, C8A", "modifications": "listed as DNA, chemistry not fully specified"}, "B5": {"name": "cr889 (nucleic acid)", "guide": "B1 guide with T6A, C8A, G43A, C51T, G72T, C86A", "modifications": "listed as DNA, chemistry not fully specified"}, "B6": {"name": "cr349 (nucleic acid)", "guide": "B1 guide with T6A, C8A, C81T", "modifications": "listed as DNA, chemistry not fully specified"}, "B7": {"name": "cr573 (nucleic acid)", "guide": "B1 guide with T6A, C8A, A31T, T53A, G71C", "modifications": "listed as DNA, chemistry not fully specified"}, "B8": {"name": "cr006 (nucleic acid)", "guide": "B1 guide with T2G, T6A, C8A", "modifications": "listed as DNA, chemistry not fully specified"}, "B9": {"name": "cr242 (nucleic acid)", "guide": "B1 guide with T6A, C8A, C45G, G48C, C60G, G69C, G77T, C81A", "modifications": "listed as DNA, chemistry not fully specified"}, "B10": {"name": "cr069 (nucleic acid)", "guide": "B1 guide with T2C, T6A, G7A, C8A", "modifications": "listed as DNA, chemistry not fully specified"}, "B11": {"name": "cr173 (nucleic acid)", "guide": "B1 guide with T6A, C8A, G43A, C51T, C73T, C75G, G83C, G85A", "modifications": "listed as DNA, chemistry not fully specified"}, "B12": {"name": "cr897 (nucleic acid)", "guide": "B1 guide with T6A, C8A, A38T", "modifications": "listed as DNA, chemistry not fully specified"}, "B13": {"name": "cr850 (nucleic acid)", "guide": "B1 guide with T6A, C8A, A78G, T80G", "modifications": "listed as DNA, chemistry not fully specified"}, "B14": {"name": "cr108 (nucleic acid)", "guide": "B1 guide with T6A, C8A, G43A, C51T, A65G", "modifications": "listed as DNA, chemistry not fully specified"}, "B15": {"name": "cr709 (nucleic acid)", "guide": "B1 guide with T6A, C8A, C57T, G71T", "modifications": "listed as DNA, chemistry not fully specified"}, "B16": {"name": "cr468 (nucleic acid)", "guide": "B1 guide with T6A, C8A, T34A", "modifications": "listed as DNA, chemistry not fully specified"}}, "tested_on": "K562 CRISPRi cells", "test": "Constant region variant library pooled growth screen, K562", "format": "cell-based, human", "details": "sgRNA constant region variants", "procedure,_shortened": "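Relative activity expresses each targeting sequence:constant region pair's phenotype over that of the unmodified constant region. Pooled growth screen ran in K562 CRISPRi cells in duplicate spinner-flask replicates, with puromycin selection and 4–8 days' growth at >2000× coverage; library paired variants with 36 targeting sequences.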", "key": {"[1]": {"details": "relative to the original, un-modified constant region cr995, CRISPRi"}, "[2]": {"details": "activity relative to the unmodified constant region cr995"}}, "note": "Residue numbers refer to the chain shown, from its start.", "data": [{"molecule": "B1", "values": [{"measurement": "Mean relative activity", "setting": "[1]", "result": 0.341}]}, {"molecule": "B2", "values": [{"measurement": "Mean relative activity", "setting": "[1]", "result": 0.3395}]}, {"molecule": "B3", "values": [{"measurement": "Mean relative activity", "setting": "[1]", "result": 0.3383}]}, {"molecule": "B4", "values": [{"measurement": "Mean relative activity", "setting": "[1]", "result": 0.3367}]}, {"molecule": "B5", "values": [{"measurement": "Mean relative activity", "setting": "[1]", "result": 0.3347}]}, {"molecule": "B6", "values": [{"measurement": "Mean relative activity", "setting": "[1]", "result": 0.3326}]}, {"molecule": "B7", "values": [{"measurement": "Mean relative activity", "setting": "[1]", "result": 0.3297}]}, {"molecule": "B8", "values": [{"measurement": "Mean relative activity", "setting": "[1]", "result": 0.3275}]}, {"molecule": "B9", "values": [{"measurement": "Mean relative activity", "setting": "[1]", "result": 0.3244}]}, {"molecule": "B10", "values": [{"measurement": "Mean relative activity", "setting": "[2]", "result": 0.3244}]}, {"molecule": "B11", "values": [{"measurement": "Mean relative activity", "setting": "[2]", "result": 0.3244}]}, {"molecule": "B12", "values": [{"measurement": "Mean relative activity", "setting": "[2]", "result": 0.3233}]}, {"molecule": "B13", "values": [{"measurement": "Mean relative activity", "setting": "[2]", "result": 0.3225}]}, {"molecule": "B14", "values": [{"measurement": "Mean relative activity", "setting": "[2]", "result": 0.3221}]}, {"molecule": "B15", "values": [{"measurement": "Mean relative activity", "setting": "[2]", "result": 0.3211}]}, {"molecule": "B16", "values": [{"measurement": "Mean relative activity", "setting": "[2]", "result": 0.32}]}]}
